Reference: patent US20190040368A1
Each block holds one binder with its values, some of them ahead of it.

Biological target: recombinant human iduronate-2 sulfatase (rhIDS) (human) (UniProt P22304)
Assay: cell-based or functional assay

Chain of recombinant human iduronate-2 sulfatase (rhIDS) (human) (P22304 26-550 limits assumed): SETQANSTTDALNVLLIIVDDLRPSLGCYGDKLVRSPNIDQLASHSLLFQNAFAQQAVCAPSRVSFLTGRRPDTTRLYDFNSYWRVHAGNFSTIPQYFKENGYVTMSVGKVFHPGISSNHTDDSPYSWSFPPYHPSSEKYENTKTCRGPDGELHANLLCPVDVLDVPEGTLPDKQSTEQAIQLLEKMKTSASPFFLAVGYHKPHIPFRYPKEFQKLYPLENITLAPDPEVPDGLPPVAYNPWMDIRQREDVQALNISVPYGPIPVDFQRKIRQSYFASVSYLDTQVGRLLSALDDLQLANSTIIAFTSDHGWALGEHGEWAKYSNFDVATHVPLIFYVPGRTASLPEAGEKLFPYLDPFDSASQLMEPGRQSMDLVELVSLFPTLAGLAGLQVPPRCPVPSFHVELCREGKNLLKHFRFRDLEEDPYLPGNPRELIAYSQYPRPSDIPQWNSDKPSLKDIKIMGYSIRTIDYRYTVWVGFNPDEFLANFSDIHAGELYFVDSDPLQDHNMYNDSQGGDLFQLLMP

% FGly (LC-MS, cation exchange purified); OXYY1801 (20° C.), 1c rhIDS, 2c HpFGE: 100% | % FGly (LC-MS, cation exchange purified); OXYY1801 (24° C.), 1c rhIDS, 2c HpFGE: 100% | % FGly (LC-MS, cation exchange purified); OXYY1801 (26° C.), 1c rhIDS, 2c HpFGE: 70.4%
B1: Hemicentrotus pulcherrimus FGE fusion protein (Lip2pre-HpFGE-6HIS-HDEL) (enzyme)
chain: ENEDINQNISPTQSHTTATTEEELAEARGEEIDSDPTSEGSGAGEGCGCGSSALNRNHDEDALGLALEENLHDHVQEGAALKYSREANDPISMDHPEANVGAFPRTNQMNFIEGGTFRMGTDKAKIYLDGESPSRLVTLDPYYFDVYEVSNSEFELFVNTTSYITEAEKFGDSFVLEARISEEVKKDISQVVAAAPWWLPVKGAEWRHPEGPDSSISSRMDHPVTHISWNDATAYCQWAGKRLPTEAEWENAARGGLNNRLFPWGNKLMPKDHHRVNIWQGEFPKVNTAEDGYEGTCPVTAFEPNGYGLYNTVGNAWEWVADWWTTVHSPESQNNPVGPDEGTDKVKKGGSYMCHISYCYRYRCEARSQNSPDSSACNLGFRCAATNLPEDIPCSNCNDSTPHHHHHHHDEL

% FGly (LC-MS); co-expression with ClFGE: 100%
B2: Columba livia Lip2-C1FGE-His6-HDEL fusion construct (enzyme)
chain: MVVIPGGVFTMGTDEPAIQQDGEWPVRKVHVNSFYMDRYEVSNEDFERFVNSTGYVTEAEKFGDSFVFEGMLSEEVKAEIHQAVAAAPWWLPVKGANWKHPEGPDSNISNRMDHPVLHVSWNDAVAFCTWAGKRLPTEAEWEYSCRGGLENRLFPWGNKLQPKGQHYANIWQGVFPTNNTAEDGYKGTAPVTAFPPNGYGLYNIVGNAWEWTADWWAVHHSTEEVHNPKGPSSGTDRVKKGGSYMCHKSYCYRYRCAARSQNTPDSSASNLGFRCAADASPELPHHHHHHHDEL

% FGly (LC-MS); co-expression with MdFGE: 100%
B3: Monodelphis domestica Lip2-MdFGE-His6-HDEL fusion construct (enzyme)
chain: AARGLGSEAGSAAADAAHPAGTCGCGSPQRPGTAAHRYSREANVAEPASAERPVLTSQMAHIPAGVFTMGTDEPQIKQDGEGPARRVRINSFYMDLYEVSNAEFERFVNSTGYVTEAEKFGDSFVFDSMLSDQVKSDIHQAVAAAPWWLPVKGANWRHPEGPDSSILHRRDHPVLHVSWNDAVAYCTWAGKRLPTEAEWEYSCRGGLENRLFPWGNKLQPKGQHYANIWQGEFPVSNTGEDGYQGTAPVTAFPPNGYGLYNIVGNAWEWTSDWWTVHHSADETLDPKGPPSGSDRVKKGGSYMCHKSYCYRYRCAARSQNTPDSSASNLGFRCAADRLPDTHHHHHHHDEL

% FGly (LC-MS); co-expression with GgFGE: 78%
B4: Gallus gallus Lip2-GgFGE-His6-HDEL fusion construct (enzyme)
chain: GKETAPGGNCGCSASRSRGGEREAVATVRRYSAAANDGRSSGRGPMVAIPGGVFTMGTDEPEIQQDGEWPARRVHVNSFYMDQYEVSNQEFERFVNSTGYLTEAEKFGDSFVFEGMLSEEVKAEIHQAVAAAPWWLPVKGANWRQPEGPGSSILSRMDHPVLHVSWNDAVAFCTWAGKRLPTEAEWEYGCRGGLEKRLFPWGNKLQPKGQHYANIWQGVFPTNNTAEDGYKGTAPVTAFPPNGYGLYNIVGNAWEWTSDWWAVHHSADEAHNPKGPSSGTDRVKKGGSYMCHKSYCYRYRCAARSQNTPDSSASNLGFRCAADALPDPQHHHHHHHDEL
